Measured values taken from the MegaScale stability set (Tsuboyama et al. 2023).

B1: r4_43_TrROS_Hall (parent)
chain: DLVTIKVPLENLEEIKKAAEKAGFKIVSISYDKENKEVTIVIEKKK

Variants of: B1
Assay: folding stability dG (cDNA display proteolysis); higher = more stable
Settings: PBS, room temperature

Compared with DLVTIKVNLENLEEIKKAAEKAGFKIVSISYDKENKEVTIVIEKKK [P8N], DLVTIKVFLENLEEIKKAAEKAGFKIVSISYDKENKEVTIVIEKKK [P8F] is higher in “folding stability dG” value: 3.58 kcal/mol for the first, 3.75 kcal/mol for the second.

First: DLVTIKVVLENLEEIKKAAEKAGFKIVSISYDKENKEVTIVIEKKK [P8V]
Second: DLVTIKVCLENLEEIKKAAEKAGFKIVSISYDKENKEVTIVIEKKK [P8C]
The “folding stability dG” value of the first is higher: 3.72 kcal/mol for the first, 3.58 kcal/mol for the second.

Going from DLVTIKVSLENLEEIKKAAEKAGFKIVSISYDKENKEVTIVIEKKK [P8S] to DLVTIKVQLENLEEIKKAAEKAGFKIVSISYDKENKEVTIVIEKKK [P8Q], the “folding stability dG” value rises from 3.49 kcal/mol to 3.53 kcal/mol.

Going from DLVTIKVDLENLEEIKKAAEKAGFKIVSISYDKENKEVTIVIEKKK [P8D] to DLVTIKVMLENLEEIKKAAEKAGFKIVSISYDKENKEVTIVIEKKK [P8M], the “folding stability dG” value rises from 3.39 kcal/mol to 3.81 kcal/mol.

Going from DLVTIKVWLENLEEIKKAAEKAGFKIVSISYDKENKEVTIVIEKKK [P8W] to DLVTIKVELENLEEIKKAAEKAGFKIVSISYDKENKEVTIVIEKKK [P8E], the “folding stability dG” value falls from 3.7 kcal/mol to 3.19 kcal/mol.

Compared with DLVTIKVRLENLEEIKKAAEKAGFKIVSISYDKENKEVTIVIEKKK [P8R], DLVTIKVKLENLEEIKKAAEKAGFKIVSISYDKENKEVTIVIEKKK [P8K] is higher in “folding stability dG” value: 3.27 kcal/mol for the first, 3.71 kcal/mol for the second.

First: DLVTIKVHLENLEEIKKAAEKAGFKIVSISYDKENKEVTIVIEKKK [P8H]
Second: DLVTIKVYLENLEEIKKAAEKAGFKIVSISYDKENKEVTIVIEKKK [P8Y]
The “folding stability dG” value of the first is higher: 4.12 kcal/mol for the first, 3.62 kcal/mol for the second.

First: DLVTIKVALENLEEIKKAAEKAGFKIVSISYDKENKEVTIVIEKKK [P8A]
Second: DLVTIKVGLENLEEIKKAAEKAGFKIVSISYDKENKEVTIVIEKKK [P8G]
The “folding stability dG” value of the first is lower: 3.6 kcal/mol for the first, 3.77 kcal/mol for the second.

Going from DLVTIKVLLENLEEIKKAAEKAGFKIVSISYDKENKEVTIVIEKKK [P8L] to DLVTIKVTLENLEEIKKAAEKAGFKIVSISYDKENKEVTIVIEKKK [P8T], the “folding stability dG” value falls from 3.95 kcal/mol to 3.68 kcal/mol.

Going from DLVTIKVILENLEEIKKAAEKAGFKIVSISYDKENKEVTIVIEKKK [P8I] to DLVTIKVPLLNLEEIKKAAEKAGFKIVSISYDKENKEVTIVIEKKK [E10L], the “folding stability dG” value rises from 3.5 kcal/mol to 3.59 kcal/mol.

First: DLVTIKVPLPNLEEIKKAAEKAGFKIVSISYDKENKEVTIVIEKKK [E10P]
Second: DLVTIKVPLINLEEIKKAAEKAGFKIVSISYDKENKEVTIVIEKKK [E10I]
The “folding stability dG” value of the first is lower: 3.48 kcal/mol for the first, 3.86 kcal/mol for the second.

First: DLVTIKVPLFNLEEIKKAAEKAGFKIVSISYDKENKEVTIVIEKKK [E10F]
Second: DLVTIKVPLSNLEEIKKAAEKAGFKIVSISYDKENKEVTIVIEKKK [E10S]
The “folding stability dG” value of the first is lower: 3.75 kcal/mol for the first, 3.85 kcal/mol for the second.

Going from DLVTIKVPLHNLEEIKKAAEKAGFKIVSISYDKENKEVTIVIEKKK [E10H] to DLVTIKVPLGNLEEIKKAAEKAGFKIVSISYDKENKEVTIVIEKKK [E10G], the “folding stability dG” value rises from 3.41 kcal/mol to 3.58 kcal/mol.

Going from DLVTIKVPLKNLEEIKKAAEKAGFKIVSISYDKENKEVTIVIEKKK [E10K] to DLVTIKVPLWNLEEIKKAAEKAGFKIVSISYDKENKEVTIVIEKKK [E10W], the “folding stability dG” value rises from 3.61 kcal/mol to 3.79 kcal/mol.

Compared with DLVTIKVPLNNLEEIKKAAEKAGFKIVSISYDKENKEVTIVIEKKK [E10N], DLVTIKVPLQNLEEIKKAAEKAGFKIVSISYDKENKEVTIVIEKKK [E10Q] is lower in “folding stability dG” value: 4.02 kcal/mol for the first, 3.52 kcal/mol for the second.

Going from DLVTIKVPLYNLEEIKKAAEKAGFKIVSISYDKENKEVTIVIEKKK [E10Y] to DLVTIKVPLRNLEEIKKAAEKAGFKIVSISYDKENKEVTIVIEKKK [E10R], the “folding stability dG” value falls from 3.77 kcal/mol to 3.72 kcal/mol.

Going from DLVTIKVPLANLEEIKKAAEKAGFKIVSISYDKENKEVTIVIEKKK [E10A] to DLVTIKVPLCNLEEIKKAAEKAGFKIVSISYDKENKEVTIVIEKKK [E10C], the “folding stability dG” value falls from 3.8 kcal/mol to 3.35 kcal/mol.

Compared with DLVTIKVPLVNLEEIKKAAEKAGFKIVSISYDKENKEVTIVIEKKK [E10V], DLVTIKVPLTNLEEIKKAAEKAGFKIVSISYDKENKEVTIVIEKKK [E10T] is higher in “folding stability dG” value: 3.68 kcal/mol for the first, 3.75 kcal/mol for the second.

First: DLVTIKVPLDNLEEIKKAAEKAGFKIVSISYDKENKEVTIVIEKKK [E10D]
Second: DLVTIKVPLMNLEEIKKAAEKAGFKIVSISYDKENKEVTIVIEKKK [E10M]
The “folding stability dG” value of the first is lower: 3.29 kcal/mol for the first, 4.03 kcal/mol for the second.

Compared with DLVTIKVPVENLEEIKKAAEKAGFKIVSISYDKENKEVTIVIEKKK [L9V], DLVTIKVPQENLEEIKKAAEKAGFKIVSISYDKENKEVTIVIEKKK [L9Q] is lower in “folding stability dG” value: 3.6 kcal/mol for the first, 3.49 kcal/mol for the second.

Going from DLVTIKVPKENLEEIKKAAEKAGFKIVSISYDKENKEVTIVIEKKK [L9K] to DLVTIKVPPENLEEIKKAAEKAGFKIVSISYDKENKEVTIVIEKKK [L9P], the “folding stability dG” value falls from 3.66 kcal/mol to 3.53 kcal/mol.

Going from DLVTIKVPSENLEEIKKAAEKAGFKIVSISYDKENKEVTIVIEKKK [L9S] to DLVTIKVPMENLEEIKKAAEKAGFKIVSISYDKENKEVTIVIEKKK [L9M], the “folding stability dG” value rises from 3.47 kcal/mol to 3.53 kcal/mol.

Going from DLVTIKVPEENLEEIKKAAEKAGFKIVSISYDKENKEVTIVIEKKK [L9E] to DLVTIKVPGENLEEIKKAAEKAGFKIVSISYDKENKEVTIVIEKKK [L9G], the “folding stability dG” value falls from 3.46 kcal/mol to 3.08 kcal/mol.

Compared with DLVTIKVPDENLEEIKKAAEKAGFKIVSISYDKENKEVTIVIEKKK [L9D], DLVTIKVPNENLEEIKKAAEKAGFKIVSISYDKENKEVTIVIEKKK [L9N] is higher in “folding stability dG” value: 3.42 kcal/mol for the first, 3.58 kcal/mol for the second.

First: DLVTIKVPIENLEEIKKAAEKAGFKIVSISYDKENKEVTIVIEKKK [L9I]
Second: DLVTIKVPWENLEEIKKAAEKAGFKIVSISYDKENKEVTIVIEKKK [L9W]
The “folding stability dG” value of the first is lower: 3.61 kcal/mol for the first, 3.92 kcal/mol for the second.

Compared with DLVTIKVPFENLEEIKKAAEKAGFKIVSISYDKENKEVTIVIEKKK [L9F], DLVTIKVPAENLEEIKKAAEKAGFKIVSISYDKENKEVTIVIEKKK [L9A] is lower in “folding stability dG” value: 3.69 kcal/mol for the first, 3.66 kcal/mol for the second.

Compared with DLVTIKVPTENLEEIKKAAEKAGFKIVSISYDKENKEVTIVIEKKK [L9T], DLVTIKVPHENLEEIKKAAEKAGFKIVSISYDKENKEVTIVIEKKK [L9H] is higher in “folding stability dG” value: 3.46 kcal/mol for the first, 3.57 kcal/mol for the second.

First: DLVTIKVPYENLEEIKKAAEKAGFKIVSISYDKENKEVTIVIEKKK [L9Y]
Second: DLVTIKVPRENLEEIKKAAEKAGFKIVSISYDKENKEVTIVIEKKK [L9R]
The “folding stability dG” value of the first is lower: 3.39 kcal/mol for the first, 3.59 kcal/mol for the second.
